Measured values: article PMC3880548 (Biochemistry, 2012)

Molecular target: the molecule itself
Assay: SEC

Protein	stoichiometry N
Shewanella oneidensis cytochrome c peroxidase, wild type (enzyme) AEPIEVITPAKITEPEKVELGKMLFFEPRLSKSGFISCNSCHNLSTGGVDALPTSIGHHWQEGPINSPTVLNADFMLAQFWDGRASNLKEQAAGPIANPKEMGFTHELATETIASMPAYRARFAKVYGDEKVDIDRLTDAIAAFEKTLVTPNSPFDQYLLGKQDAISGDAKAGYQLFKDKGCVSCHNGPAVGGTMFMKMGLIKPFHTNNPAEGRKGVTGKDADKFVFKVPTLRNIELTYPYFHDGSVWTLEEAVNTMADIQLGQKLTEKETKEMVAFLNSLTGEQPQISLPILPPSNKETPRPVPFATGAK	2
Shewanella oneidensis cytochrome c peroxidase E321K charge reversal mutant (enzyme) AEPIEVITPAKITEPEKVELGKMLFFEPRLSKSGFISCNSCHNLSTGGVDALPTSIGHHWQEGPINSPTVLNADFMLAQFWDGRASNLKEQAAGPIANPKEMGFTHELATETIASMPAYRARFAKVYGDEKVDIDRLTDAIAAFEKTLVTPNSPFDQYLLGKQDAISGDAKAGYQLFKDKGCVSCHNGPAVGGTMFMKMGLIKPFHTNNPAEGRKGVTGKDADKFVFKVPTLRNIELTYPYFHDGSVWTLEEAVNTMADIQLGQKLTEKETKEMVAFLNSLTGEQPQISLPILPPSNKKTPRPVPFATGAK	2
